From article PMC8295233 (Immunobiology, 2021)
No end group written: not given here.

B1: LPF single-chain fused construct (ERAP1_R with AAAAFKARKF fused to its C-terminal end), His6-tag removed (domain or fragment, human)
chain: GFPLITITVRGRNVHMKQEHYMKGSDGAPDTGYLWHVPLTFITSKSDMVHRFLLKTKTDVLILPEEVEWIKFNVGMNGYYIVHYEDDGWDSLTGLLKGTHTAVSSNDRASLINNAFQLVSIGKLSIEKALDLSLYLKHETEIMPVFQGLNELIPMYKLMEKRDMNEVETQFKAFLIRLLRDLIDKQTWTDEGSVSERMLRSQLLLLACVHNYQPCVQRAEGYFRKWKESNGNLSLPVDVTLAVFAVGAQSTEGWDFLYSKYQFSLSSTEKSQIEFALCRTQNKEKLQWLLDESFKGDKIKTQEFPQILTLIGRNPVGYPLAWQFLRKNWNKLVQKFELGSSSIAHMVMGTTNQFSTRTRLEEVKGFFSSLKENGSQLRCVQQTIETIEENIGWMDKNFDKIRVWLQSEKLERMAAAAFKARKF
B2: SPF single-chain fused construct (ERAP1_R with FKARKF fused to its C-terminal end), His6-tag removed (domain or fragment, human)
chain: GFPLITITVRGRNVHMKQEHYMKGSDGAPDTGYLWHVPLTFITSKSDMVHRFLLKTKTDVLILPEEVEWIKFNVGMNGYYIVHYEDDGWDSLTGLLKGTHTAVSSNDRASLINNAFQLVSIGKLSIEKALDLSLYLKHETEIMPVFQGLNELIPMYKLMEKRDMNEVETQFKAFLIRLLRDLIDKQTWTDEGSVSERMLRSQLLLLACVHNYQPCVQRAEGYFRKWKESNGNLSLPVDVTLAVFAVGAQSTEGWDFLYSKYQFSLSSTEKSQIEFALCRTQNKEKLQWLLDESFKGDKIKTQEFPQILTLIGRNPVGYPLAWQFLRKNWNKLVQKFELGSSSIAHMVMGTTNQFSTRTRLEEVKGFFSSLKENGSQLRCVQQTIETIEENIGWMDKNFDKIRVWLQSEKLERMFKARKF

How the values were obtained:
ERAP1_R = ERAP1_R (Homo sapiens, UniProt Q9NZ08); assay: SPR binding analysis of peptide analytes to immobilized ERAP1_R; conditions: pH 6.2, read-out: ka
[1] = target: ERAP1 regulatory domain, the domain part of the SPF and LPF fused constructs (human, UniProt Q9NZ08 529-941); assay: crystal structure
[2] = target: ERAP1 regulatory domain with a C-terminal His6-tag (human, UniProt Q9NZ08 529-941); assay: SPR

| Molecule | kon (ERAP1_R) | binding result [1] | Kd [2] | koff [2] | kon [2] |
| --- | --- | --- | --- | --- | --- |
| LVAFKARKF [Free Peptide (LVAFKARKF), LVAFKARKF] | 734 M⁻¹ s⁻¹ | – | – | – | – |
| AAAAFKARKF [LPF peptide (long peptide with Phe anchor), the peptide part of the LPF fused construct] | – | binds | – | – | – |
| B1 | – | – | 21.3 µM | 0.091 s⁻¹ | 4270 M⁻¹ s⁻¹ |
| LVAFKARKF [free peptide LVAFKARKF (optimized ERAP1 substrate)] | – | – | 19.8 µM | 0.0145 s⁻¹ | – |
| B2 | – | – | 32 µM | 0.112 s⁻¹ | 3500 M⁻¹ s⁻¹ |
| FKARKF [SPF peptide (short peptide with Phe anchor), the peptide part of the SPF fused construct] | – | binds | – | – | – |
